Assay results: paper PMC8013792, “Bacterial protein domains with a novel Ig‐like fold target human CEACAM receptors” (The EMBO Journal, 2021)

B1: IgSF (IgI3) domain of β protein, recombinant, biotinylated [modified: biotin, C-terminal] [Streptococcus agalactiae (GBS)] / recombinant CEACAM1 N-terminal domain, unglycosylated, 6xHis tagged [human] (parent)
chain 1: MAQLTTESMPFNVAEGKEVLLLVHNLPQQLFGYSWYKGERVDGNRQIVGYAIGTQQATPGPANSGRETIYPNASLLIQNVTQNDTGFYTLQVIKSDLVNEEATGQFHVY
chain 2: ANENNQQKIELTVSPENITVYEGEDVKFTVTAKSDSKTTLDFSDLLTKYNPSVSDRISTNYKTNTDNHKIAEITIKNLKLNESQTVTLKAKDDSGNVVEKTFTITVQKKEEKQLPSTGGS

Variants of: B1
Assay: flow cytometry on coated dynabeads
Conditions: with recombinant CEACAM1 N-terminal domain, parent: 390, read off a plot

Variant	response (Geometric MFI)
chain 2 ANENNQQKIELTVSPENITVYEGEDVKFTVTAKSDSKTTLDFSDLLTKYNPAVSDRISTNYKTNTDNHKIAEITIKNLKLNESQTVTLKAKDDSGNVVEKTFTITVQKKEEKQLPSTGGS [chain 2 S52A]	320
chain 2 ANENNQQKIELTVSPENITVYEGEDVKFTVTAKSDSKTTLDFSDALTKYNPSVSDRISTNYKTNTDNHKIAEITIKNLKLNESQTVTLKAKDDSGNVVEKTFTITVQKKEEKQLPSTGGS [chain 2 L45A]	350
